Data reported in PMC10397247.
Like-named read-outs stand apart in the source and are kept apart here. Values belong to the binder of their own block, whether it stands above or below them.

Key:
4H496-bH = target: T1, 4H496-bH; experiment: two-hybrid library CCNG1;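 note: natural log of median RNA to DNA barcode read ratio; higher means stronger binding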
T1 chain: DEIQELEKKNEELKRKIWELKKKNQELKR

4H491-bH = target: T2, 4H491-bH; experiment: two-hybrid library CCNG1;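 note: natural log of median RNA to DNA barcode read ratio; higher means stronger binding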
T2 chain: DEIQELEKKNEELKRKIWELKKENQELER

4H3632-bH = target: T3, 4H3632-bH; experiment: two-hybrid library CCNG1;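 note: natural log of median RNA to DNA barcode read ratio; higher means stronger binding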
T3 chain: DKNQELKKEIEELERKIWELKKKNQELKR

4H342-bH = target: T4, 4H342-bH; experiment: two-hybrid library CCNG1;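 note: natural log of median RNA to DNA barcode read ratio; higher means stronger binding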
T4 chain: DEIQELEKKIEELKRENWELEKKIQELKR

4H48-bH = target: T5, 4H48-bH; experiment: two-hybrid library CCNG1;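 note: natural log of median RNA to DNA barcode read ratio; higher means stronger binding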
T5 chain: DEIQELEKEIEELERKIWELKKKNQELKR

O7-bS = target: T6, O7-bS; experiment: two-hybrid library CCNG1;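 note: natural log of median RNA to DNA barcode read ratio; higher means stronger binding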
T6 chain: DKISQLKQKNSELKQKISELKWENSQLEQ

O15-bS = target: T7, O15-bS; experiment: two-hybrid library CCNG1
T7 chain: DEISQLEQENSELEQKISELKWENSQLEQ

O6-bS = target: T8, O6-bS; experiment: two-hybrid library CCNG1
T8 chain: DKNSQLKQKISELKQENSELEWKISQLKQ

O2-bS = target: T9, O2-bS; experiment: two-hybrid library CCNG1
T9 chain: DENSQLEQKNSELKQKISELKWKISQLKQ

O9-bS = target: T10, O9-bS; experiment: two-hybrid library CCNG1
T10 chain: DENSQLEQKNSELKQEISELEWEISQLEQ

O5-bS = target: T11, O5-bS; experiment: two-hybrid library CCNG1
T11 chain: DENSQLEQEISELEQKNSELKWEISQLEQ

O3-bS = target: T12, O3-bS; experiment: two-hybrid library CCNG1
T12 chain: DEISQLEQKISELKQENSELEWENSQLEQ

O8-bS = target: T13, O8-bS; experiment: two-hybrid library CCNG1
T13 chain: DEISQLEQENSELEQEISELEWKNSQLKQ

O16-bS = target: T14, O16-bS; experiment: two-hybrid library CCNG1
T14 chain: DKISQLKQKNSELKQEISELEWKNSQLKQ

O4-bS = target: T15, O4-bS; experiment: two-hybrid library CCNG1
T15 chain: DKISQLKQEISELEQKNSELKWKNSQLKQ

Q7-AA = target: T16, Q7-AA; experiment: two-hybrid library CCmax
T16 chain: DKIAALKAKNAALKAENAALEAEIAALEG

Q8-AA = target: T17, Q8-AA; experiment: two-hybrid library CCmax; conditions: mean of both orientations
T17 chain: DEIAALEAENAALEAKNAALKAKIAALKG

O6-bP = target: T18, O6-bP; experiment: two-hybrid library CCNG1
T18 chain: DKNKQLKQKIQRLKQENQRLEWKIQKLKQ

4H584-bN = target: T19, 4H584-bN; experiment: two-hybrid library CCNG1
T19 chain: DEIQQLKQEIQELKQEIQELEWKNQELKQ

4H1985-bN = target: T20, 4H1985-bN; experiment: two-hybrid library CCNG1
T20 chain: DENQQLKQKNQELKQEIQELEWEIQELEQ

4H1804-bN = target: T21, 4H1804-bN; experiment: two-hybrid library CCNG1
T21 chain: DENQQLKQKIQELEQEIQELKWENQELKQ

4H3638-bN = target: T22, 4H3638-bN; experiment: two-hybrid library CCNG1
T22 chain: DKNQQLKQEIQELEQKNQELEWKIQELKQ

4H3974-bN = target: T23, 4H3974-bN; experiment: two-hybrid library CCNG1
T23 chain: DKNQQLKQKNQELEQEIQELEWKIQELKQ

4H3631-bN = target: T24, 4H3631-bN; experiment: two-hybrid library CCNG1
T24 chain: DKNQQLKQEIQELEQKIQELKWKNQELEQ

4H850-bN = target: T25, 4H850-bN; experiment: two-hybrid library CCNG1
T25 chain: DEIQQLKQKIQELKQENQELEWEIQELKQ

4H3129-bN = target: T26, 4H3129-bN; experiment: two-hybrid library CCNG1
T26 chain: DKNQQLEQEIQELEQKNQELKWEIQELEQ

4H619-bN = target: T27, 4H619-bN; experiment: two-hybrid library CCNG1
T27 chain: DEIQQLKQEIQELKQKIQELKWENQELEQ

4H570-bN = target: T28, 4H570-bN; experiment: two-hybrid library CCNG1
T28 chain: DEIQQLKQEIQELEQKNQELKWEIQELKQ

4H906-bN = target: T29, 4H906-bN; experiment: two-hybrid library CCNG1
T29 chain: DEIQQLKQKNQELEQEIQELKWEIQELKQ

4H3172-bN = target: T30, 4H3172-bN; experiment: two-hybrid library CCNG1
T30 chain: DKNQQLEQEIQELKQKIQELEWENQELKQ

4H3414-bN = target: T31, 4H3414-bN; experiment: two-hybrid library CCNG1
T31 chain: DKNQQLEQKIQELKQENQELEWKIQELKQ

4H3817-bN = target: T32, 4H3817-bN; experiment: two-hybrid library CCNG1
T32 chain: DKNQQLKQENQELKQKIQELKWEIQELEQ

4H3414-AA = target: T33, 4H3414-AA; experiment: two-hybrid library CCmax; conditions: mean of both orientations
T33 chain: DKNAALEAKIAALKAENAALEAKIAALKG

4H2728-AA = target: T34, 4H2728-AA; experiment: two-hybrid library CCmax; conditions: mean of both orientations
T34 chain: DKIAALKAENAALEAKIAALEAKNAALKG

4H2699-AA = target: T35, 4H2699-AA; experiment: two-hybrid library CCmax; conditions: mean of both orientations
T35 chain: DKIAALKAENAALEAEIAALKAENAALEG

4H464-AA = target: T36, 4H464-AA; experiment: two-hybrid library CCmax; conditions: mean of both orientations
T36 chain: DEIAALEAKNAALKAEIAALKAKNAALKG

4H446-AA = target: T37, 4H446-AA; experiment: two-hybrid library CCmax; conditions: mean of both orientations
T37 chain: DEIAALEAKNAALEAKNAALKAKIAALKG

4H3782-AA = target: T38, 4H3782-AA; experiment: two-hybrid library CCmax; conditions: mean of both orientations
T38 chain: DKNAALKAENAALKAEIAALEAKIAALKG

4H3939-AA = target: T39, 4H3939-AA; experiment: two-hybrid library CCmax; conditions: mean of both orientations
T39 chain: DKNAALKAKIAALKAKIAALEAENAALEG

4H2580-AA = target: T40, 4H2580-AA; experiment: two-hybrid library CCmax; conditions: mean of both orientations
T40 chain: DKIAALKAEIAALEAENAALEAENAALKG

4H380-AA = target: T41, 4H380-AA; experiment: two-hybrid library CCmax; conditions: mean of both orientations
T41 chain: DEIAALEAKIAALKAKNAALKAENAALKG

4H2961-AA = target: T42, 4H2961-AA; experiment: two-hybrid library CCmax; conditions: mean of both orientations
T42 chain: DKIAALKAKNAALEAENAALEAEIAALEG

4H3049-AA = target: T43, 4H3049-AA; experiment: two-hybrid library CCmax; conditions: mean of both orientations
T43 chain: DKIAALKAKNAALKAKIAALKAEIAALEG

4H3595-AA = target: T44, 4H3595-AA; experiment: two-hybrid library CCmax; conditions: mean of both orientations
T44 chain: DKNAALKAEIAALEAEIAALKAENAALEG

4H3129-AA = target: T45, 4H3129-AA; experiment: two-hybrid library CCmax; conditions: mean of both orientations
T45 chain: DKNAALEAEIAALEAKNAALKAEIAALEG

4H1558-AA = target: T46, 4H1558-AA; experiment: two-hybrid library CCmax
T46 chain: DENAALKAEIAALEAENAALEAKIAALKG

4H1867-AA = target: T47, 4H1867-AA; experiment: two-hybrid library CCmax
T47 chain: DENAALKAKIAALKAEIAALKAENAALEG

4H3969-AA = target: T48, 4H3969-AA; experiment: two-hybrid library CCmax; conditions: mean of both orientations
T48 chain: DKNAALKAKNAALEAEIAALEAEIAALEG

4H483-AA = target: T49, 4H483-AA; experiment: two-hybrid library CCmax; conditions: mean of both orientations
T49 chain: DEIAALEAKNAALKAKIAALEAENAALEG

4H63-AA = target: T50, 4H63-AA; experiment: two-hybrid library CCmax; conditions: mean of both orientations
T50 chain: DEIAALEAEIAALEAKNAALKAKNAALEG

4H2903-AA = target: T51, 4H2903-AA; experiment: two-hybrid library CCmax; conditions: mean of both orientations
T51 chain: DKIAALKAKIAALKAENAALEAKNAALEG

4H341-AA = target: T52, 4H341-AA; experiment: two-hybrid library CCmax; conditions: mean of both orientations
T52 chain: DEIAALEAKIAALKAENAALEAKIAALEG

4H2774-AA = target: T53, 4H2774-AA; experiment: two-hybrid library CCmax; conditions: mean of both orientations
T53 chain: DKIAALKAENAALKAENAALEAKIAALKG

4H1913-AA = target: T54, 4H1913-AA; experiment: two-hybrid library CCmax; conditions: mean of both orientations
T54 chain: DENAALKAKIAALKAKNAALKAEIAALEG

4H3629-AA = target: T55, 4H3629-AA; experiment: two-hybrid library CCmax; conditions: mean of both orientations
T55 chain: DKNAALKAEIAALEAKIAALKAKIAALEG

4H2608-AA = target: T56, 4H2608-AA; experiment: two-hybrid library CCmax
T56 chain: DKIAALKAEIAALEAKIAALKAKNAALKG

4H2621-AA = target: T57, 4H2621-AA; experiment: two-hybrid library CCmax; conditions: mean of both orientations
T57 chain: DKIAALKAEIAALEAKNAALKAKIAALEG

4H249-AA = target: T58, 4H249-AA; experiment: two-hybrid library CCmax; conditions: mean of both orientations
T58 chain: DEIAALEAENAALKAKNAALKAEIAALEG

Binder: DEIQELEKKIEELKRENWELEKKIQELKR [4H342-bH]
interaction score (4H496-bH): 0.0247
interaction score (4H491-bH): 1.47
interaction score (4H3632-bH): 1.55
interaction score (4H342-bH): 1.38
interaction score (4H48-bH): -0.0388

Binder: DEIQELEKEIEELERKIWELKKKNQELKR [4H48-bH]
interaction score (O6-bP): -0.138
interaction score (4H491-bH): 2.29
interaction score (4H48-bH): 1.21

Binder: DEIAALEAEIAALEAENAALEAENAALEG [Q3-AA]
interaction score (Q7-AA; mean of both orientations): -1.36
interaction score (Q8-AA): -1.09

Now from value to binder:

interaction score (O7-bS): -0.978
interaction score (O15-bS): -0.724
interaction score (O6-bS): -0.0139
interaction score (O2-bS): -0.919
interaction score (O9-bS): -0.877
interaction score (O5-bS): -1.13
interaction score (O3-bS): -3.1
interaction score (O8-bS): -1.05
interaction score (O16-bS): 1.93
interaction score (O4-bS): -0.754
Binder: DEISQLEQENSELEQKISELKWENSQLEQ [O15-bS]

interaction score (Q7-AA): -1.59
interaction score (Q8-AA): 2.38
Binder: DKIAALKAKNAALKAENAALEAEIAALEG [Q7-AA]

interaction score (4H584-bN): 0.249
interaction score (4H1985-bN): 0.201
interaction score (4H1804-bN): 1.58
interaction score (4H3638-bN): -0.805
interaction score (4H3974-bN): -1.87
interaction score (4H3631-bN): 0.112
interaction score (4H850-bN): 0.194
interaction score (4H3129-bN): 0.0855
interaction score (4H619-bN): -1.34
interaction score (4H570-bN): -0.363
interaction score (4H906-bN): -0.241
interaction score (4H3172-bN): -0.368
interaction score (4H3414-bN): -0.563
interaction score (4H3817-bN): -0.425
Binder: DENQQLKQKIQELEQEIQELKWENQELKQ [4H1804-bN]

interaction score (4H3414-AA): 1.1
interaction score (4H2728-AA): -0.226
interaction score (4H2699-AA): -0.582
interaction score (4H464-AA): 0.907
interaction score (4H446-AA): -0.543
interaction score (4H3782-AA): -0.467
interaction score (4H3939-AA): -0.411
interaction score (4H2580-AA): -1.57
interaction score (4H380-AA): 1.48
interaction score (4H2961-AA): -1.19
interaction score (4H3049-AA): 1.32
interaction score (4H3595-AA): -1.53
interaction score (4H3129-AA): 2.15
interaction score (4H1558-AA): 0.452
interaction score (4H1867-AA): -1.23
interaction score (4H3969-AA): -1.28
interaction score (4H483-AA): 0.272
interaction score (4H63-AA): -0.799
interaction score (4H2903-AA): -0.294
interaction score (4H341-AA): 1.27
interaction score (4H2774-AA): -0.715
interaction score (4H1913-AA): 1.75
interaction score (4H3629-AA): 0.444
interaction score (4H2608-AA): -1.1
interaction score (4H2621-AA): 1.29
interaction score (4H249-AA): 1.51
Binder: DENAALKAEIAALEAENAALEAKIAALKG [4H1558-AA]
